Test [1] concerns the target T1, SARS-COV-2 spike (614G-del18) (SARS-CoV-2, UniProt P0DTC2 14-1255).
In test [2] the target is T1, SARS-COV-2 spike (614G-del18). Put plainly: cell-based or functional assay.
Test [3] deals with SARS-COV-2 spike protein (Wuhan) expressed on transfected cells (SARS-CoV-2 (Wuhan), UniProt P0DTC2 14-1273).
The target of test [4] is T1, SARS-COV-2 spike (614G-del18). Put plainly: flow cytometry, transfected HEK cells, MFI GFP+/GFP- cells [1/3].
Test [5] shares this target. Nature of the test: flow cytometry, transfected HEK cells, MFI GFP+/GFP- cells [3/3]. Background: A flow cytometer gives signals particle by particle.
Test [6] has the same target. Put plainly: flow cytometry, transfected HEK cells, MFI GFP+/GFP- cells [2/3].
Test [7] shares this target. The source holds these as a separate data set.
Test [8] has as its target SARS-COV-2 Omicron BQ.1.1 spike (pCG1, del18) (SARS-CoV-2 Omicron BQ.1.1, UniProt P0DTC2 14-1255). Nature of the test: cell-based or functional assay.
The target in test [9] is SARS-COV-2 Omicron BA.1 spike (pCG1, del18) (SARS-CoV-2 Omicron BA.1, UniProt P0DTC2 14-1255). Nature of the test: cell-based or functional assay.
Test [10] concerns the target SARS-COV-2 Omicron XBB spike (pCG1, del18) (SARS-CoV-2 Omicron XBB, UniProt P0DTC2 14-1255). Nature of the test: cell-based or functional assay.
Test [11] concerns the target SARS-COV-2 Omicron BA.2.75 spike (pCG1, del18) (SARS-CoV-2 Omicron BA.2.75, UniProt P0DTC2 14-1255). Nature of the test: cell-based or functional assay.
The target of test [12] is SARS-COV-2 Omicron BA.4.6 spike (pCG1, del18) (SARS-CoV-2 Omicron BA.4.6, UniProt P0DTC2 14-1255). Nature of the test: cell-based or functional assay.
Test [13] addresses SARS-COV-2 Omicron BA.2 spike (pCG1, del18) (SARS-CoV-2 Omicron BA.2, UniProt P0DTC2 14-1255). Nature of the test: cell-based or functional assay.

Residue numbers refer to the chain shown, from its start. Values joined by “and” are separate entries in the source; they are usually repeats but may differ in a detail not shown here. Equal values may be shown once. Read-outs that look alike come from different tables or passages of the source.

B1: VHH R3_DC23 (VHH)
VHH: QVQLQESGGGLVQAGDSLTLSCAVSGRIFSTYTMGWFRQAPGKEREFVAAVRWGAGTIYYADSMKGRFTISRDSAKNTVDLQMNSTKPEDTAVYYCGAAYVSKANYGSLWYQDSRRYDYWGQGTQVTVSS
Turning to B1, the concentration for a half-maximal effect (EC50 (read off the curve)) in test [1] and in test [3] was about 10 ng/mL throughout. Besides, the “IC50, neutralisation of VSV pseudotyped with spike, Vero E6 cells” value in test [2] was under 1 ng/mL. Also, the “IC50, neutralisation of VSV spike pseudotypes” value in test [2] was 1.2 ng/ml and 80 µM and ~1 ng/ml.

B2: VHH R3_C4 (VHH)
VHH: QVQLQESGGGLVQAGDSLRLSCAVSGRPFSTYTMGWFRQAPGKEREFVAAMRWSGGTIYYADSVKGRFTISRDNDKNTVNLEMNSLKPEDTAVYYCAAAYVSKANYGSLWYRASGLYDYWGQGTQVTVSS
As for B2, the binding result in test [4] is given as “binds”.

B3: VHH R4_DC16 (VHH)
VHH: B2 VHH with D75A, K76Q, E82Q, L109S, A113N
As for B3, the binding result in [5] is given as “binds”.

B4: VHH R3_DC20 (VHH)
VHH: B2 VHH with D75A, K76Q, E82Q, K87E, A113N
For the molecule B4, in test [4], the binding result is given as “binds”.

B5: VHH R3_DC9 (VHH)
VHH: B2 VHH with A14T, A50S, I58M, A61S, E82Q, A113N
For B5, in test [4], the binding result is on record as “binds”.

B6: VHH R3_DC2 (VHH)
VHH: B2 VHH with A14T, A50S, I58K, A61S, T69S, K76Q, E82Q, A113N
On to B6, for which, in test [4], the binding result is listed as “binds”.

B7: VHH R4_DC20 (VHH)
VHH: B2 VHH with A14T, A50S, I58M, Y59N, K76Q, E82Q, A113N
Turning to B7, the binding result in [5] is given as “binds”.

B8: VHH R4_DC9 (VHH)
VHH: QVQLQESGGGLVQAGDSLRLSCAASGRIFSTYTMGWFRQAPGMEREFVAAIRWSGSTVYYADSVKGRFTISRDNAKNTVYLQMNSLKPEDTAVYYCAAARVSKANYGTLWYRASGLYDYWGQGTQVTVSS
B8: in [2], the “IC50, neutralisation of VSV pseudotyped with spike, Vero E6 cells” value was about 100 ng/mL; the “IC50, neutralisation of VSV spike pseudotypes” value was 68.9 ng/ml and 4680 µM.

B9: VHH R4_DC13 (VHH)
VHH: B2 VHH with A14T, A50S, I58V, A61S, E82Q, S85N, L109F, A113N, G115D
On to B9, for which the binding result in [6] is on record as “binds”.

B10: VHH R4_DC6 (VHH)
VHH: QVQLQESGGGLVQAGDSLRLSCAASGRILSTFTMGWFRQAPGKEREFVAAMRWNGGTKNYADSVKGRFTISRDNANSVVYLQMNSTKPEDTAVYYCAAAYVSKANYGSLWYRTPSLYDYWGQGTQVTVSS
Regarding B10, the “EC50 (read off the curve)” value in test [1] is about 2 ng/mL.

B11: R3_DC23-Fc(YTE) (Fc fusion)
chain: DVQLVESGGGLVQPGGSLRLSCAVSGRIFSTYTMGWFRQAPGKEREFVAAVRWGAGTIYYADSVKGRFTISRDNAKNTVYLQMNSLRPEDTAVYYCGAAYVSKANYGSLWYQDSRRYDYWGQGTLVTVSSGGGGSGGGGSDKTHTCPPCPAPELLGGPSVFLFPPKPKDTLYITREPEVTCVVVDVSHEDPEVKFNWYVDGVEVHNAKTKPREEQYNSTYRVVSVLTVLHQDWLNGKEYKCKVSNKALPAPIEKTISKAKGQPREPQVYTLPPSRDELTKNQVSLTCLVKGFYPSDIAVEWESNGQPENNYKTTPPVLDSDGSFFLYSKLTVDKSRWQQGNVFSCSVMHEALHNHYTQKSLSLSPG
With B11, the “EC50 (read off the curve)” value in test [7] was about 100 ng/mL. Besides, the “IC50, neutralisation of VSV pseudotyped with spike” value in [8], in [9], in [10], in [11], in [12] and in test [13] was about 1 ng/mL each time. In addition, the “EC50, neutralisation of VSV pseudotyped with spike” value stood at 1 ng/mL in test [9], 0.35 ng/mL in test [13] and 1 ng/mL in test [2].

As a reminder, the EC50 (read off the curve) is the concentration at which the effect is half-maximal.

The values above are taken from US20250313611A1 (VIB VZW, published 2025).
